The target of the data set is Factor X (FX), P00742.
Chain of Factor X (FX), P00742 (P00742 whole entry, looked up): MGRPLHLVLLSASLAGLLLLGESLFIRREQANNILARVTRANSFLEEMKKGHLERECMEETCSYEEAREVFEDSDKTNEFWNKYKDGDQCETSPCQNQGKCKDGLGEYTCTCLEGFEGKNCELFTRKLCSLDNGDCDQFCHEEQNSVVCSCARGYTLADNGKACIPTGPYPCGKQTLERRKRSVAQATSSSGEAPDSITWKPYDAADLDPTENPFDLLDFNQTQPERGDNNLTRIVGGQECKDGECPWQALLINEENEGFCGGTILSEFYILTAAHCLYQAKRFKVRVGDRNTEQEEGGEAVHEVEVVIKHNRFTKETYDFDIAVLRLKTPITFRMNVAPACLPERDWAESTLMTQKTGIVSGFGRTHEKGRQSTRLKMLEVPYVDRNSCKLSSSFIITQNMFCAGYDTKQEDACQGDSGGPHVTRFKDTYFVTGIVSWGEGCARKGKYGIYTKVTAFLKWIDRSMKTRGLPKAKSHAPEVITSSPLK

B1: FIXa-I251S/R318Y/R338E/R403E/E410N (protein)
chain 1: not shown
chain 2: not shown
In the case of B1, the “% of WT kcat/KM (against Catalyst Biosciences WT FIXa)” value is on record as 334% and the kcat/KM for activation of FX by FIXa in the Xase complex (FVIIIa, PC/PS vesicles, Ca2+), fluorogenic Spectrafluor FXa read-out is 1.5e+08 M⁻¹ s⁻¹.

B2: FIXa-D203N/F205T/E410N (mature FIX numbering) (protein)
chain 1: not shown
chain 2: not shown
Consider B2, for which the “% of WT kcat/KM” value was found to be 91%.

B3: FIXa-D203N/F205T/R338A (mature FIX numbering) (protein)
chain 1: not shown
chain 2: not shown
Turning to B3, the “% of WT kcat/KM” value is listed as 135%.

B4: FIXa-D104N/K106S/I251S/R318Y/R338E/E410N (protein)
chain 1: not shown
chain 2: not shown
For B4, the “% of WT kcat/KM (against Catalyst Biosciences WT FIXa)” value was 291% and the kcat/KM for activation of FX by FIXa in the Xase complex (FVIIIa, PC/PS vesicles, Ca2+), fluorogenic Spectrafluor FXa read-out is 1.3e+08 M⁻¹ s⁻¹.

B5: FIXa-D203N/F205T/R318Y (mature FIX numbering) (protein)
chain 1: not shown
chain 2: not shown
For B5, the “% of WT kcat/KM” value is recorded as 44%.

B6: FIXa-Y155F/I251S/R318Y/R338E/R403E/E410N (protein)
chain 1: not shown
chain 2: not shown
Take B6: the “% of WT kcat/KM (against Catalyst Biosciences WT FIXa)” value was 363% and the kcat/KM for activation of FX by FIXa in the Xase complex (FVIIIa, PC/PS vesicles, Ca2+), fluorogenic Spectrafluor FXa read-out was 1.7e+08 M⁻¹ s⁻¹.

B7: FIXa-D203N/F205T/K228N (mature FIX numbering) (protein)
chain 1: not shown
chain 2: not shown
As to B7, the “% of WT kcat/KM” value turned out to be 30%.

B8: FIXa-D85N/K228N/R318Y/R338E/R403E/E410N (protein)
chain 1: not shown
chain 2: not shown
For B8, the “% of WT kcat/KM (against Catalyst Biosciences WT FIXa)” value is given as 336% and the kcat/KM for activation of FX by FIXa in the Xase complex (FVIIIa, PC/PS vesicles, Ca2+), fluorogenic Spectrafluor FXa read-out came to 1.6e+08 M⁻¹ s⁻¹.

B9: FIXa-Y155F/R318Y/R338E/R403E (mature FIX numbering) (protein)
chain 1: not shown
chain 2: not shown
With B9, the “% of WT kcat/KM” value was determined as 189%.

B10: FIXa-D104N/K106S/I251S/R318Y/R338E/R403E/E410N (protein)
chain 1: not shown
chain 2: not shown
For the protein B10, the “% of WT kcat/KM (against Catalyst Biosciences WT FIXa)” value was determined as 263% and the kcat/KM for activation of FX by FIXa in the Xase complex (FVIIIa, PC/PS vesicles, Ca2+), fluorogenic Spectrafluor FXa read-out was 1.2e+08 M⁻¹ s⁻¹.

B11: FIXa-D203N/F205T/R338E (mature FIX numbering) (protein)
chain 1: not shown
chain 2: not shown
For B11, the “% of WT kcat/KM” value was determined as 228%.

B12: FIXa-K228N/R318Y/R338E/R403E/E410N (protein)
chain 1: not shown
chain 2: not shown
Take B12: the “% of WT kcat/KM (against Catalyst Biosciences WT FIXa)” value turned out to be 339% and the kcat/KM for activation of FX by FIXa in the Xase complex (FVIIIa, PC/PS vesicles, Ca2+), fluorogenic Spectrafluor FXa read-out worked out at 1.6e+08 M⁻¹ s⁻¹.

B13: FIXa-D203N/F205T/R338E/R403E (mature FIX numbering) (protein)
chain 1: not shown
chain 2: not shown
For the protein B13, the “% of WT kcat/KM” value stood at 41%.

The record behind these values is patent US11491212.
